We go through eight variants from the supplement of paper PMC7125110.

± gives the standard error. For some assays here: Fewer inactive variants are shown than the library holds.

B1: glmS ribozyme (parent)
chain: AUAAAAGCGCCAGAACUACAGAAAUGUAGUUGACGAGGAGGAGGUUUAUCGAAUUUUCGGCGGAUGCCUCCAAA

Holding throughout (conditions): with glucosamine-6-phosphate
Variants of B1 are the subject of series [1]. Kind of series: kcat; higher = faster cleavage; RNA array. An outline of the steps:
(§1)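 A hybridised Cy3 probe tracked barcoded ribozyme variants, transcribed in situ by E. coli RNA polymerase on sequenced MiSeq chips, at 37 °C. The variants received 40 μM to 10 mM glucosamine-6-phosphate in HEPES/KCl/Mg(OAc)2 buffer. kobs came from decay fits and kcat and KM from weighted Michaelis–Menten fits.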

Series [2] covers variants of B1. Kind of series: KM; higher = weaker cofactor use; RNA array. The essentials:
as §1

Variants of B1 are the subject of series [3]. Nature of the series: self-cleavage kobs at 40 uM GlcN6P; higher = faster cleavage; RNA array. The essentials:
as §1

Variants of B1 are the subject of series [4]. Nature of the series: self-cleavage kobs at 160 uM GlcN6P; higher = faster cleavage; RNA array. An outline of the steps:
as §1

Series [5] covers variants of B1. Kind of series: self-cleavage kobs at 640 uM GlcN6P; higher = faster cleavage; RNA array. The essentials:
as §1

Series [6] covers variants of B1. Kind of series: self-cleavage kobs at 2500 uM GlcN6P; higher = faster cleavage; RNA array. An outline of the steps: as §1
The variants in series [7] derive from B1. Nature of the series: self-cleavage kobs at 10000 uM GlcN6P; higher = faster cleavage; RNA array. The essentials: as §1

As to AUAAAAGCGCCAGAACUACAGAAAUGUAGUUGACGAGGAUGCGGUUUAUCGAAUUUUCGGCGGAUGCCUCCAAA [G40U A42C], the kcat – broadly, the maximal rate divided by the concentration of active sites – in the series with glucosamine-6-phosphate [1] was found to be 1.23e-05 ± 9.1e-08 s⁻¹. In addition, the Michaelis constant (KM) (commonly the concentration of substrate that gives half-maximal velocity) with glucosamine-6-phosphate [2] was found to be 2280 ± 50 µM.
Consider AUAAAAGCGCCAGAAUUACAGAAAUGUAGUUGACGAGGAGAAGGUUUAUCGAAUUUUCGGCGGAUGCCUCCAAA [C16U G41A], for which, in the series with glucosamine-6-phosphate [1], the kcat is 0.00129 ± 0.00064 s⁻¹. For the same variant, the “self-cleavage kobs at 40 uM GlcN6P” value with glucosamine-6-phosphate [3] came to 6.97e-05 ± 1.2e-05 s⁻¹. The “self-cleavage kobs at 160 uM GlcN6P” value in the series with glucosamine-6-phosphate [4] was determined as 0.000153 ± 3.2e-05 s⁻¹. Besides, in the series with glucosamine-6-phosphate [5], the “self-cleavage kobs at 640 uM GlcN6P” value came to 0.000403 ± 7.6e-05 s⁻¹. In addition, the “self-cleavage kobs at 2500 uM GlcN6P” value in the series with glucosamine-6-phosphate [6] came out at 0.0011 ± 0.00019 s⁻¹.
Regarding AUAAAAGCGCCAGAACUACAGAAAUGUAGUUGACGAGGAGUAGGUUUUUCGAAUUUUCGGCGGAUGCCUCCAAA [G41U A48U], the catalytic constant (kcat) with glucosamine-6-phosphate [1] turned out to be 5.64e-05 ± 5.9e-06 s⁻¹. Also, in the series with glucosamine-6-phosphate [2], the KM amounted to 2530 ± 840 µM. For the same variant, the “self-cleavage kobs at 10000 uM GlcN6P” value in the series with glucosamine-6-phosphate [7] amounted to 4.45e-05 ± 1.4e-05 s⁻¹.
As for AUAAAAGCGCCAGAACUACAGAAAUGUAGUCGACGAGGAGGAGGUUUAUCGAUUUUUCGGCGGAUGCCUCCAAA [U31C A53U], in the series with glucosamine-6-phosphate [1], the kcat amounted to 0.00494 ± 0.0007 s⁻¹. In addition, the Michaelis constant (KM) in the series with glucosamine-6-phosphate [2] stood at 2460 ± 510 µM. In addition, in the series with glucosamine-6-phosphate [3], the “self-cleavage kobs at 40 uM GlcN6P” value worked out at 9.39e-05 ± 8.5e-06 s⁻¹. The “self-cleavage kobs at 160 uM GlcN6P” value in the series with glucosamine-6-phosphate [4] was 0.000269 ± 4.7e-05 s⁻¹. In the series with glucosamine-6-phosphate [5], the “self-cleavage kobs at 640 uM GlcN6P” value is 0.000925 ± 8.8e-05 s⁻¹. In the series with glucosamine-6-phosphate [6], the “self-cleavage kobs at 2500 uM GlcN6P” value stood at 0.00236 ± 0.00022 s⁻¹. Besides, in the series with glucosamine-6-phosphate [7], the “self-cleavage kobs at 10000 uM GlcN6P” value worked out at 0.00421 ± 0.00036 s⁻¹.
As to AUAAAAGCGCCAGUACUACAGAAAUGUAGUUGACGAGGAGGAGGUUUAUCGAAGUUUCGGCGGAUGCCUCCAAA [A14U U54G], the catalytic constant (kcat) in the series with glucosamine-6-phosphate [1] stood at 0.00917 ± 0.0032 s⁻¹. Besides, the “self-cleavage kobs at 40 uM GlcN6P” value with glucosamine-6-phosphate [3] came to 0.000217 ± 2.4e-05 s⁻¹. Further, the “self-cleavage kobs at 160 uM GlcN6P” value in the series with glucosamine-6-phosphate [4] was determined as 0.000382 ± 6.2e-05 s⁻¹. Also, in the series with glucosamine-6-phosphate [5], the “self-cleavage kobs at 640 uM GlcN6P” value stood at 0.00128 ± 0.00026 s⁻¹. For the same variant, the “self-cleavage kobs at 2500 uM GlcN6P” value in the series with glucosamine-6-phosphate [6] was determined as 0.00387 ± 0.00047 s⁻¹. Besides, the “self-cleavage kobs at 10000 uM GlcN6P” value with glucosamine-6-phosphate [7] came out at 0.00759 ± 0.00076 s⁻¹.
Turning to AUAAAAGCGCCAGAACUACAGAAAUGUAGUUGACGAGGAGGAUGUUUAUCGAAAAUUCGGCGGAUGGUUCCAAA [G43U U54A U55A C67G C68U], the catalytic constant (kcat) with glucosamine-6-phosphate [1] was determined as 0.000164 ± 6.5e-05 s⁻¹. In the series with glucosamine-6-phosphate [7], the “self-cleavage kobs at 10000 uM GlcN6P” value stood at 7.92e-05 ± 2.1e-05 s⁻¹.
Turning to AUAAAAGCGCCAGUACUACAGAAAUGUAGUAGACGAGGAGGAGGUUUAUCGAAUUUUCGGCGGAUGCCUCCAAA [A14U U31A], in the series with glucosamine-6-phosphate [1], the kcat amounted to 0.0165 ± 0.0068 s⁻¹. In the series with glucosamine-6-phosphate [3], the “self-cleavage kobs at 40 uM GlcN6P” value worked out at 0.000492 ± 4e-05 s⁻¹. Further, the “self-cleavage kobs at 160 uM GlcN6P” value with glucosamine-6-phosphate [4] was determined as 0.00191 ± 0.00038 s⁻¹. In addition, the “self-cleavage kobs at 640 uM GlcN6P” value with glucosamine-6-phosphate [5] is 0.00488 ± 0.00072 s⁻¹. In addition, in the series with glucosamine-6-phosphate [6], the “self-cleavage kobs at 2500 uM GlcN6P” value came to 0.00761 ± 0.0014 s⁻¹. Moreover, in the series with glucosamine-6-phosphate [7], the “self-cleavage kobs at 10000 uM GlcN6P” value turned out to be 0.028 ± 0.0038 s⁻¹.
In the case of AUAAAAGCGCCAGAACUACAGAAAUGUAGUUGACGAGGAGGAGGUCUAUCGAAUUUUCGGCGGAUGCCUCCAAA [U46C], the catalytic constant (kcat) in the series with glucosamine-6-phosphate [1] amounted to 0.00387 ± 0.00034 s⁻¹. In the series with glucosamine-6-phosphate [2], the Michaelis-Menten constant (KM) was 1410 ± 170 µM. Moreover, the “self-cleavage kobs at 40 uM GlcN6P” value with glucosamine-6-phosphate [3] was determined as 0.000108 ± 2.5e-06 s⁻¹. Further, in the series with glucosamine-6-phosphate [4], the “self-cleavage kobs at 160 uM GlcN6P” value turned out to be 0.000364 ± 1.3e-05 s⁻¹. Also, in the series with glucosamine-6-phosphate [5], the “self-cleavage kobs at 640 uM GlcN6P” value is 0.00126 ± 3.5e-05 s⁻¹. Moreover, in the series with glucosamine-6-phosphate [6], the “self-cleavage kobs at 2500 uM GlcN6P” value was 0.00342 ± 0.00018 s⁻¹. Also, the “self-cleavage kobs at 10000 uM GlcN6P” value with glucosamine-6-phosphate [7] came to 0.00329 ± 7.7e-05 s⁻¹.
